Experimental findings from publication PMC8674125, “Analysis of Il36a induction by C/EBPβ via a half-CRE•C/EBP element in murine macrophages in dependence of its CpG methylation level” are described below.

The target of this data set is C/EBPβ bZIP domain (mouse, UniProt P28033 221-296). The experiment in a line: fluorescence polarization; FP: 5 nM DNA, 20 mM Tris-HCl pH 7.5, 150 mM NaCl, 5% glycerol, 0.5 mM TCEP, 0.1 mg/ml BSA, 30 min, temperature not stated; EMSA conditions as in earlier work, not given. Conditions: protein: recombinant; tags: N-terminal 6xHis (pET-45b); chain copies: 2; label: 5'-FAM on strand 1; blunt.
C/EBPβ bZIP domain, sequence (P28033 221-296): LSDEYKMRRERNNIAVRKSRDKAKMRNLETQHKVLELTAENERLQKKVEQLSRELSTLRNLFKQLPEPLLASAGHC

B1: FP_CREB (unmethylated half-CRE•C/EBP Il36a) (dsDNA)
DNA 1: CATCTTACGTCACCT
DNA 2: AGGTGACGTAAGATG
On to B1, for which the dissociation constant (Kd) – broadly, the free concentration of one partner at which half of the binding sites on the other are occupied at equilibrium, for simple one-to-one binding – is 80 ± 30 nM.

B2: FP_CREBmeth (methylated half-CRE•C/EBP Il36a) (dsDNA)
DNA 1: CATCTTACGTCACCT
DNA 2: AGGTGACGTAAGATG
modifications: 5-methyl-C (mC) at position 8 of strand 1 and position 7 of strand 2
Turning to B2, the Kd came to 100 ± 30 nM.
